Experimental data reported in paper PMC4611135.

Experiments:
[1] = target: DndCDE complex (Salmonella enterica serovar Cerro 87); assay: SEC; DndCDE complex saturated with IscS, purified on Superdex 200; molar ratio by densitometry of the Coomassie-stained SDS-PAGE bands
[2] = target: DndE-His (Salmonella enterica serovar Cerro 87); assay: pull-down; co-expression of dndDE with His tag on DndE (pDndDEH) in E. coli BL21 (DE3); nickel purification, 15% SDS-PAGE

stoichiometry N [2]	Substance	stoichiometry N [1]
	Strep-IscS (from UniProt P0A6B7 1-404) (natural protein)	1 molar ratio
1 molar ratio	DndD (natural protein)	
